Reference: article PMC7810988, “Inositol pyrophosphates promote the interaction of SPX domains with the coiled-coil motif of PHR transcription factors to regulate plant phosphate homeostasis”

Molecular target: AtPHR1 MYB-CC (Arabidopsis thaliana, UniProt Q94CL7 222-358)
Experiment: GCI; 4 C, 300 mM NaCl; GCI at 4 C: AtPHR1 in 20 mM HEPES pH 7.5, 300 mM NaCl; OsPHR2 in 20 mM HEPES pH 7.9, 200 mM NaCl. EMSA: LI-COR Odyssey kit buffer without optional components, 50 nM oligo, 30 min at room temperature, 5% TBE gel in 0.5x TBE
Settings: protein: recombinant; tags: His6 N-terminal, TEV-cleaved (untagged); chain copies: 2; label: 5'-biotin on strand 1; blunt

Chain of AtPHR1 MYB-CC (Q94CL7 222-358): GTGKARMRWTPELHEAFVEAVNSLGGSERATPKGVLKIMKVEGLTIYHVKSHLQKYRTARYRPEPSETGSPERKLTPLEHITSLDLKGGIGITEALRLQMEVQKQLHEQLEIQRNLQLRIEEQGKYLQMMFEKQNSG

B1: pAtSPX1 biotin (dsDNA)
DNA 1: CAGAGAAAAAAGGATATTCTAATTAGAAACCTTAAGAATATTCTTTTTAATCCC
DNA 2: GGGATTAAAAAGAATATTCTTAAGGTTTCTAATTAGAATATCCTTTTTTCTCTG
Work on B1 yielded a Kd of ~200 nM.
